Target: T1, rOmpR (OmpR-6xHis) (Klebsiella pneumoniae ATCC43816?) (UniProt A6TF28)
T1 sequence: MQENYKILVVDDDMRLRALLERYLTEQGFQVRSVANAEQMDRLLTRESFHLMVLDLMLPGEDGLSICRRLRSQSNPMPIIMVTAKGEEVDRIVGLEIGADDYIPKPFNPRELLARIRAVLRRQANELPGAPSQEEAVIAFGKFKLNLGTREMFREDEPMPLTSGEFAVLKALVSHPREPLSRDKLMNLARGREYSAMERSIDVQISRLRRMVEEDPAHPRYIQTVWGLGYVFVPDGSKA
Test: EMSA

ACAGAACGCTGAAATGCACGGAAAGTTGTCCGTTGGAAAATAATTAAACATTTATTCACTATTTTGCTACTTATTGTTTGAAATCACGGGGCGTCACCGTATAATTTGTCCGCTTTTTGATGCTTGACTCTTCGTCTTAAAGGACGTTTTATACGACACGCGACATACCTCAAAGGGAGCAGG (double strand) [Patp2]
binding: no binding
